Assay results taken from patent publication US10611814 (GEMOAB MONOCLONALS, dated 2020).

What was measured:
Assay in all cases: cell-based or functional assay
CD123 antigen = CD123 antigen (UniProt P26951 19-378, limits assumed)
CD33 antigen = CD33 antigen (UniProt P20138 18-364, limits assumed)
[1] = molecular target: prostate membrane antigen (UniProt Q04609 1-750, limits assumed)
[2] = molecular target: T1, prostate stem cell antigen (UniProt O43653 12-83, limits assumed)
T1 sequence (looked up): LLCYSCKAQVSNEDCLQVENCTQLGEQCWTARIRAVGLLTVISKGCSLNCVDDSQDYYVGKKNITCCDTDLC

Chain of CD123 antigen (P26951 19-378 limits assumed): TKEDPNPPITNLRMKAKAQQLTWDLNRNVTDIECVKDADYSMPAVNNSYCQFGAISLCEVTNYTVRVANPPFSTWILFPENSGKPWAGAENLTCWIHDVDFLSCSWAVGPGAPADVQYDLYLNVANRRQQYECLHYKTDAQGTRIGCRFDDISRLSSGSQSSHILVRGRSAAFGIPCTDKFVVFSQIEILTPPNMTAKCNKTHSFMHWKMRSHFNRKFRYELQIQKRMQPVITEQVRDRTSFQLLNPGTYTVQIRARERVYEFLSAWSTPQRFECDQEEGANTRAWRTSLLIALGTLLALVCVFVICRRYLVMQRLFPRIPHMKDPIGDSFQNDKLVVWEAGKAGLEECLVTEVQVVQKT
Chain of CD33 antigen (P20138 18-364 limits assumed): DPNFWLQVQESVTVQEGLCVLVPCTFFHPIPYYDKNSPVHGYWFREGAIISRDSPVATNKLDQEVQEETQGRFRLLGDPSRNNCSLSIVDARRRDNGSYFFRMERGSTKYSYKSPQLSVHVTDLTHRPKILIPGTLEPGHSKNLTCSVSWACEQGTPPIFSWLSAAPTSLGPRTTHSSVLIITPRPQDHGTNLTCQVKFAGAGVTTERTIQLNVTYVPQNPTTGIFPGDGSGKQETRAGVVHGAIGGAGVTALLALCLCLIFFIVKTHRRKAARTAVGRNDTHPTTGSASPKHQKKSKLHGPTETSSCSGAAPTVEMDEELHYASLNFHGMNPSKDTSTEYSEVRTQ
Chain of prostate membrane antigen (Q04609 whole entry): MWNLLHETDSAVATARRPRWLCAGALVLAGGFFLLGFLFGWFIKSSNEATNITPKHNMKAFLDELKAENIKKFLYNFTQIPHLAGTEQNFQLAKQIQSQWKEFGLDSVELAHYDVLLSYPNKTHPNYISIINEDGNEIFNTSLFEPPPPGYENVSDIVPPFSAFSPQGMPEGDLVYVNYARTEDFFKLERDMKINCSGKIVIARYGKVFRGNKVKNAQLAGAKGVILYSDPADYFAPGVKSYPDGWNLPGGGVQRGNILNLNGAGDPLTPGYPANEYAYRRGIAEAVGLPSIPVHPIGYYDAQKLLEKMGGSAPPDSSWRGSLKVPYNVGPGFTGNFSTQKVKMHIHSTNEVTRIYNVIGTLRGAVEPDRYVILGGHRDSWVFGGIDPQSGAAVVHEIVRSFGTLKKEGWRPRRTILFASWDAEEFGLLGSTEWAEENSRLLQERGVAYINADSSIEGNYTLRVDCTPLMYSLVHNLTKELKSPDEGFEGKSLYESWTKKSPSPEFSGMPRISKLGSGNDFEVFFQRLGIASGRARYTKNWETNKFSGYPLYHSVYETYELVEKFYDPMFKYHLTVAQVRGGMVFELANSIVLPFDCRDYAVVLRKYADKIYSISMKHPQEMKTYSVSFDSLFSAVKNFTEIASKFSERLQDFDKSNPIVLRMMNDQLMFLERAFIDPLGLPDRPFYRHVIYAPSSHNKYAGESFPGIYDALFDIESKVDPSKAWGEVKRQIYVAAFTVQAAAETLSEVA

B1: target module specific for CD123 (scFv)
scFv: DAAQPAEVQLQQSGPELVKPGASVKMSCKASGYTFTDYYMKWVKQSHGKSLEWIGDIIPSNGATFYNQKFKGKATLTVDRSSSTAYMHLNSLTSEDSAVYYCTRSHLLRASWFAYWGQGTLVTVSAASGGGGSGGGGSGGGGSDFVMTQSPSSLTVTAGEKVTMSCKSSQSLLNSGNQKNYLTWYLQKPGQPPKLLIYWASTRESGVPDRFTGSGSGTDFTLTISSVQAEDLAVYYCQNDYSYPYTFGGGTKLEIKGGGGSAAAKPLPEVTDEYARGGPEQKLISEEDLNSAVDHHHHHH
EC50, 51Cr-release lysis of MOLM-13 by UniCAR T cells, e:t 1:1, 24 h; combination of αCD33 TM + αCD123 TM (CD123 antigen): 70.2 pmol
EC50, 51Cr-release lysis of OCI-AML3 by UniCAR T cells, e:t 1:1, 24 h; combination of αCD33 TM + αCD123 TM (CD123 antigen): 80.2 pmol
EC50, lysis of MOLM-13 by UniCAR T cells, e:t 1:1 (CD123 antigen): 45 pmol

B2: target module specific for CD33 (scFv)
scFv: DAAQPAGSDIVLTQSPASLAVSPGQRATITCTASSSVNYIHWYQQKPGQPPKLLIYDTSKVASGVPARFSGSGSGTDFTLTINPVEANDTANYYCQQWRSYPLTFGQGTKLEIKGGGGSGGGGSGASGAGGGGSGGGGSQVQLVQSGAEVKKPGASVKVSCKASGYTFTDYVVHWVRQAPGQGLEWMGYINPYNDGTKYNEKFKGRVTMTRDTSISTAYMELSRLRSDDTAVYYCARDYRYEVYGMDYWGQGTLVTVSSGGGGSAAAKPLPEVTDEYARGGPEQKLISEEDLNSAVDHHHHHH
EC50, 51Cr-release lysis of MOLM-13 by UniCAR T cells, e:t 1:1, 24 h; combination of αCD33 TM + αCD123 TM (CD33 antigen): 70.2 pmol
EC50, 51Cr-release lysis of OCI-AML3 by UniCAR T cells, e:t 1:1, 24 h; combination of αCD33 TM + αCD123 TM (CD33 antigen): 80.2 pmol
EC50, lysis of MOLM-13 by UniCAR T cells, e:t 1:1 (CD33 antigen): 137 pmol

B3: bi-specific CD33-CD123 target module (bispecific antibody)
chain: DAAQPAEVQLQQSGPELVKPGASVKMSCKASGYTFTDYYMKWVKQSHGKSLEWIGDIIPSNGATFYNQKFKGKATLTVDRSSSTAYMHLNSLTSEDSAVYYCTRSHLLRASWFAYWGQGTLVTVSAASGGGGSGGGGSGGGGSDFVMTQSPSSLTVTAGEKVTMSCKSSQSLLNSGNQKNYLTWYLQKPGQPPKLLIYWASTRESGVPDRFTGSGSGTDFTLTISSVQAEDLAVYYCQNDYSYPYTFGGGTKLEIKAAAKPLPEVTDEYARGQVQLVQSGAEVKKPGASVKVSCKASGYTFTDYVVHWVRQAPGQGLEWMGYINPYNDGTKYNEKFKGRVTMTRDTSISTAYMELSRLRSDDTAVYYCARDYRYEVYGMDYWGQGTLVTVSSGGGGSGGGGSGGGGSDIVLTQSPASLAVSPGQRATITCTASSSVNYIHWYQQKPGQPPKLLIYDTSKVASGVPARFSGSGSGTDFTLTINPVEANDTANYYCQQWRSYPLTFGQGTKLEIKGPEQKLISEEDLNSAVDHHHHHH
EC50, 51Cr-release lysis of MOLM-13 by UniCAR T cells, e:t 1:1, 24 h; bispecific TM (CD123 antigen): 2.9 pmol
EC50, 51Cr-release lysis of OCI-AML3 by UniCAR T cells, e:t 1:1, 24 h; bispecific TM (CD123 antigen): 11.7 pmol
EC50, 51Cr-release lysis of MOLM-13 by UniCAR T cells, e:t 1:1, 24 h; bispecific TM (CD33 antigen): 2.9 pmol
EC50, 51Cr-release lysis of OCI-AML3 by UniCAR T cells, e:t 1:1, 24 h; bispecific TM (CD33 antigen): 11.7 pmol

B4: target module specific for PSMA (scFv)
scFv: DAAQPAEVQLQQSGPELVKPGTSVRISCKTSGYTFTEYTIHWVKQSHGKSLEWIGNINPNNGGTTYNQKFEDKATLTVDKSSSTAYMELRSLTSEDSAVYYCAAGWNFDYWGQGTTVTVSSGGGGSGGGGSGGGGSDIVMTQSHKFMSTSVGDRVSIICKASQDVGTAVDWYQQKPGQSPKLLIYWASTRHTGVPDRFTGSGSGTDFTLTITNVQSEDLADYFCQQYNSYPLTFGAGTMLDLKAAAKPLPEVTDEYARGGPEQKLISEEDLNSAVDHHHHHH
Half maximal effective dosis (EC50), 51Cr-release lysis of PC3 cells expressing PSMA by UniCAR T cells, e:t 5:1 [1]: ~12 pmol

B5: target module specific for PSCA (scFv)
scFv: DAAQPAGSDIQMTQSPSSLSASVGDRVTITCGTSQDINNYLNWYQQKPGKVPKLLIYYTSRLHSGVPSRFSGSGSGTDFTLTISSLQPEDVATYYCQQSKTLPWTFGGGTQLTVLGGGGSGGGGSGASAAGGGGSGGGGSQVQLVESGGGLVKPGGSLRLSCAASGFTFSSYSMSWIRQAPGKGLEWVSYINDSGGSTFYPDTVKGRFTISRDNAKNSLYLQMNSLRAEDTAVYYCARRMYYGNSHWHFDVWGQGTTVTVSSGGGGSAAAKPLPEVTDEYARGGPEQKLISEEDLNSAVDHHHHHH
Half maximal effective dosis (EC50), 51Cr-release lysis of PC3 cells expressing PSCA by UniCAR T cells, e:t 5:1 [2]: ~12 pmol
